The target of assay [1] is Purified HNA-5a protein (CD11a) (human) (UniProt P20701). The assay is described as follows: Luminex bead assay, protein on microbeads; ratio to negative mouse IgG; 6 tests.
Assay [2] has as its target Purified HNA-4a protein (CD11b) (human) (UniProt P11215). The description is as above.
Assay [3] deals with Purified HNA-5a protein (CD11a) (human) (UniProt P20701). The experiment in a line: Luminex bead assay, protein on microbeads; reference, 1 by definition.
Assay [4] concerns the target Purified HNA-4a protein (CD11b) (human) (UniProt P11215). The description is as above.
The target in assay [5] is HNA-1b K138T modified protein (human) (UniProt O75015). The assay is described as follows: Luminex bead assay, protein on microbeads, negative serum, PE goat anti-human IgG; non-specific IgG background.
Assay [6] concerns the target HNA-1c L136A modified protein (human) (UniProt O75015). Described as above.
For assay [7], the target named is wild type HNA-1b protein (Fc gamma receptor type IIIb, FcγRIIIb, CD16b) (human) (UniProt O75015). The description is as above.
Assay [8] addresses wild type HNA-1c protein (Fc gamma receptor type IIIb, FcγRIIIb, CD16b) (human) (UniProt O75015). The assay is described as above.
In assay [9] the target is HNA-1c W131F modified protein (human) (UniProt O75015). Described as above.
Assay [10] deals with HNA-1b W131F modified protein (human) (UniProt O75015). Described as above.
Assay [11] deals with HNA-1c K138T modified protein (human) (UniProt O75015). The description is as above.
In assay [12] the target is HNA-1b L136A modified protein (human) (UniProt O75015). The description is as above.
In assay [13] the target is HNA-1b K138T modified protein (human) (UniProt O75015). The assay is described as follows: Luminex bead assay, protein on microbeads, PE goat anti-human IgG; reference, 1 by definition.
Assay [14] has as its target HNA-1c L136A modified protein (human) (UniProt O75015). The description is as above.
Assay [15] deals with wild type HNA-1a protein (Fc gamma receptor type IIIb, FcγRIIIb, CD16b) (human) (UniProt O75015). Described as above.
Assay [16] deals with Purified HNA-3a protein (CTL2) (human) (UniProt Q8IWA5). The assay is described as above.
Chain of UniProt Q8IWA5 (Q8IWA5 whole entry): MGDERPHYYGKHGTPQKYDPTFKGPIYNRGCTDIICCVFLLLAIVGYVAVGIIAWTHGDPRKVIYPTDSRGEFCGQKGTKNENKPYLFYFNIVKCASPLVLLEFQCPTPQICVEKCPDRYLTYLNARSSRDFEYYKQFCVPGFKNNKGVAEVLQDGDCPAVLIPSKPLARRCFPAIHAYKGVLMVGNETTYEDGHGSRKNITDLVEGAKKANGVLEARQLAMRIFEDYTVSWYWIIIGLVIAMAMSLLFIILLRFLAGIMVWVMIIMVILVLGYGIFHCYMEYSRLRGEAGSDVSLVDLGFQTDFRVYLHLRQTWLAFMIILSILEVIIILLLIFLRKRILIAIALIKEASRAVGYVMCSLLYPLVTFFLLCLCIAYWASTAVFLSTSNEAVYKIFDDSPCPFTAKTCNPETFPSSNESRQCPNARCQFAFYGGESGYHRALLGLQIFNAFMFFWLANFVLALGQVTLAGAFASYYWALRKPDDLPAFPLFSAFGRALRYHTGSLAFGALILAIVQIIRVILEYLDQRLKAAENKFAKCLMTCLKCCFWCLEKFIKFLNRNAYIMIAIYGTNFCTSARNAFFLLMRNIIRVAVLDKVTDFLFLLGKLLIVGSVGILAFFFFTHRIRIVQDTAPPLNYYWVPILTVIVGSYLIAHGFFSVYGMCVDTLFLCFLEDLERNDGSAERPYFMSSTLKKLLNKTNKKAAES
Assay [17] deals with wild type HNA-1b protein (Fc gamma receptor type IIIb, FcγRIIIb, CD16b) (human) (UniProt O75015). The description is as above.
Assay [18] concerns the target HNA-1a W131F modified protein (human) (UniProt O75015). Described as above.
In assay [19] the target is Purified HNA-2 protein (CD177) (human) (UniProt Q8N6Q3). The description is as above.
Chain of UniProt Q8N6Q3 (Q8N6Q3 22-408 limits assumed): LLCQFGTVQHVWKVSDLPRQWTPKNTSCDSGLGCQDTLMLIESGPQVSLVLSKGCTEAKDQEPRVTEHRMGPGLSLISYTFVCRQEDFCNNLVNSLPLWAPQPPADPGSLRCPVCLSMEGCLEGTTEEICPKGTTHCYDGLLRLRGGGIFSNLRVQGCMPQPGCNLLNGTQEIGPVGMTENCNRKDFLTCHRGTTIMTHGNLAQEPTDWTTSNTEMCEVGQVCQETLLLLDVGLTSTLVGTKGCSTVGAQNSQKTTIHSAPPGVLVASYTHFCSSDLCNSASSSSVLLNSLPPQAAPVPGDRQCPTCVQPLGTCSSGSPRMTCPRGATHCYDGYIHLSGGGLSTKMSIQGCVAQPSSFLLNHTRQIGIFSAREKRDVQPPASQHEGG
Assay [20] addresses HNA-1a K138T modified protein (human) (UniProt O75015). Described as above.
For assay [21], the target named is wild type HNA-1c protein (Fc gamma receptor type IIIb, FcγRIIIb, CD16b) (human) (UniProt O75015). Described as above.
For assay [22], the target named is HNA-1a L136A modified protein (human) (UniProt O75015). The assay is described as above.
Assay [23] deals with HNA-1c W131F modified protein (human) (UniProt O75015). Described as above.
Assay [24] deals with HNA-1b W131F modified protein (human) (UniProt O75015). The description is as above.
The target of assay [25] is HNA-1c K138T modified protein (human) (UniProt O75015). The assay is described as above.
The target in assay [26] is HNA-1b L136A modified protein (human) (UniProt O75015). The description is as above.
The target of assay [27] is wild type HNA-1a protein (Fc gamma receptor type IIIb, FcγRIIIb, CD16b) (human) (UniProt O75015). The assay is described as follows: Luminex bead assay, protein on microbeads, neat negative serum, PE goat anti-human IgG; non-specific IgG background.
For assay [28], the target named is HNA-1a W131F modified protein (human) (UniProt O75015). Described as above.
Assay [29] concerns the target HNA-1a K138T modified protein (human) (UniProt O75015). Described as above.
Assay [30] has as its target HNA-1a L136A modified protein (human) (UniProt O75015). The assay is described as above.

Chain of UniProt P20701 (P20701 26-1170 limits assumed): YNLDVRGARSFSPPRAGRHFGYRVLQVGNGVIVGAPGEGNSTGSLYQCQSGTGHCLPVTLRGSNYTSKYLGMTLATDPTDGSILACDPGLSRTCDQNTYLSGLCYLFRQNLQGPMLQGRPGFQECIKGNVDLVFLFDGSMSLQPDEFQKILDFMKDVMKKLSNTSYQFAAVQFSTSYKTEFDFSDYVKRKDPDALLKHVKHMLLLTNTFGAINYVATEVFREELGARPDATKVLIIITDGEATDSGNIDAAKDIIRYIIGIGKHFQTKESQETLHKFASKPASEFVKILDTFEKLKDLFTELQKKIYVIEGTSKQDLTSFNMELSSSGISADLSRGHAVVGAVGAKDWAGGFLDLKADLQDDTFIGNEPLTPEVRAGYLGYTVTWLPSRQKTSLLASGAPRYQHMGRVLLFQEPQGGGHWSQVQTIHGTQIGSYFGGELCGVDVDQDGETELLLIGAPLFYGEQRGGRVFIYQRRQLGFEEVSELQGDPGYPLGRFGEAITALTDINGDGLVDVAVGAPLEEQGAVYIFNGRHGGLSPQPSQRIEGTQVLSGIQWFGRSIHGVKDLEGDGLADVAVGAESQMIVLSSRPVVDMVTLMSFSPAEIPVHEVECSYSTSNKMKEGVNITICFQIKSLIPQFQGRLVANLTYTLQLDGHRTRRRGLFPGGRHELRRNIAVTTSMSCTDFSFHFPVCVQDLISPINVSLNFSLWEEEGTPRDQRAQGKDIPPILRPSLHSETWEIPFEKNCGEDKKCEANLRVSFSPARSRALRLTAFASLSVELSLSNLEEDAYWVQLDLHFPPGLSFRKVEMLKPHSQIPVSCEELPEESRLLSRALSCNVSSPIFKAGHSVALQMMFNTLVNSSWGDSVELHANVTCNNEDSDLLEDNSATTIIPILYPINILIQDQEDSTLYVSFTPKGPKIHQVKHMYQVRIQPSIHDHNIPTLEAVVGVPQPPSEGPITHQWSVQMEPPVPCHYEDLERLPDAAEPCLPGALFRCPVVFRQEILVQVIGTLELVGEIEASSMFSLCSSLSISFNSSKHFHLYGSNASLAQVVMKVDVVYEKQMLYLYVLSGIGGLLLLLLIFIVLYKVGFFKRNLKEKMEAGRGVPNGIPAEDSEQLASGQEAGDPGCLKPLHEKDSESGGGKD

In the case of Positive mouse IgG (#ICRF44) (antibody), the detection ratio in [1] turned out to be 3 fold; in assay [2], 594 fold.
As for Negative mouse IgG (antibody), the detection ratio in [3] and in assay [4] was 1 fold throughout.
For the substance Positive mouse IgG (#TS1/18) (antibody), the detection ratio in [1] amounted to 5 fold; in [2] it was 543 fold.
Negative Sera (#LSNC) (antibody): the Background Value (MFI) in [5] stood at 187 MFI; in assay [6], 209 MFI; in [7] it was 1970 MFI; in assay [8], 1500 MFI; in assay [9], 181 MFI; in assay [10], 183 MFI. In addition, the Background Value (MFI) in assay [11] turned out to be 126 MFI; in [12], 277 MFI; in assay [27], 1910 MFI; in assay [28], 417 MFI; in [29], 450 MFI; in assay [30], 290 MFI. The Fold Increased Ratio Against Negative Sera in assay [13], in [14], in [15], in assay [17], in assay [18] and in assay [20] was 1 fold each time. Also, the Fold Increased Ratio Against Negative Sera in [21], in assay [22], in assay [23], in assay [24], in [25] and in [26] was 1 fold throughout. For the same substance, the detection ratio in assay [16] and in assay [19] was 1 fold in each case.

Values taken from patent publication US20170089895A1.
